B1: Difoil-4PΔ1-10 (other)
chain: HHHHHHPVLLKSTETGQYLRINPDGTVDGTRDRSDPHIQFQISPEGNGEVLLKSTETGQYLRINPDGTVDGTRDRSDPHIQFQISPEGNG
notes: Form used for crystallisation (PDB 3OGF); Three chains make two β-trefoil folds; also called Difoil-4P* (Δ1-10 mutant form)

Experiments:
[1] = target: FGFR on NIH 3T3 fibroblasts; experiment: cell-based or functional assay
[2] = target: the molecule itself; experiment: size-exclusion chromatography of peptide fragments
[3] = target: the molecule itself; experiment: X-ray crystal structure (Δ1-10 form)
Description: Crystals of Monofoil-4PΔ1-10 and Difoil-4PΔ1-10 grew in 2 M ammonium sulfate, 0.1 M Na citrate pH 5.5. Crystals were mounted in a stream of gaseous nitrogen at 100 K and diffraction data were collected at either the Southeast Regional Collaborative Access Team 22-BM beam line (λ=1.00 Å) at the Advanced Photon Source, Argonne National Laboratory, using a MarCCD 300 detector (Mar USA) or at the X25 beam line of the National Synchrotron Light Source at Brookhaven National Laboratory, using an ADSC Q315 CCD detector. Each dataset was collected from a single crystal except Monofoil-4PΔ1-10 and Difoil-4PΔ1-10. Datasets from two crystals of Monofoil-4PΔ1-10 were combined for better completion and redundancy.
Diffraction data were indexed, integrated, and scaled using the HKL2000 software package (Otwinowski Z (1993) Proceedings of the CCP4 Study Weekend: “Data Collection and Processing”, eds Sawyer L, Isaacs N, Bailey S (Science and Engineering Research Council, Daresbury Laboratory, England), pp 56-62 and Otwinowski Z and MinorW (1997) Meth Enzymol 276:307-326). Molecular replacement and model building utilized the PHENIX software package (Zwart P H et al. (2008) Methods Mol Biol 426:419-435), with 5% of the data in the reflection files set aside for Rfree calculations (Brunger A T (1992) Nature 355:472-475). […]

| Molecule | binding result [2] | also measured |
| --- | --- | --- |
| human fibroblast growth factor-1 (FGF-1), 140 amino acid form (from UniProt P05230 16-155) (ligand) |  | mitogenic activity with 3T3 fibroblasts, EC50 [1]: 0.0584 µg/mL |
| EVYIKSTETGQYLAMDTDGLLYGSQTPNEECLFLERLEENH (peptide, UniProt P05230 68-108, looked up) [peptide fragment of FGF-1, residues 53-93 (second trefoil-fold subdomain)] | no binding |  |
| YNTYISKKHAEKNWFVGLKKNGSCKRGPRTHYGQKAILFLPLPVSSD (peptide, UniProt P05230 109-155, looked up) [peptide fragment of FGF-1, residues 94-140 (third trefoil-fold subdomain)] | no binding |  |
| KPKLLYCSNGGHFLRILPDGTVDGTRDRSDQHIQLQLSAESVG (peptide, UniProt P05230 25-67, looked up) [peptide fragment of FGF-1, residues 10-52 (first trefoil-fold subdomain)] | no binding |  |
| B1 |  | binding result [3]: binds |

Reference: patent US20150361149A1 (FLORIDA STATE UNIVERSITY RESEARCH FOUNDATION, published 2015)
